Data set [1] concerns aortic allograft (plaque growth). Briefly: Mouse aortic allograft transplant model. The method, then:
To assess potential anti-inflammatory actions of individual serpin-derived peptides, peptide treatment was tested in mice after aortic allograft transplant at 4 weeks.
Ninety three mice had aortic allograft transplantation; 56 had PAI-1−/− (C57BL/6 background) donor to BALB/c (PAI-1+/+) recipient; and 37 had C57BL/6 wild type (PAI-1+/+) to BALB/c (PAI-1+/+) recipient. […] Due to the large number of surgeries required, both the PAI-1−/− and the WT mouse implants were utilized. The PAI-1−/− mice also allowed analysis of serpin response in a mouse transplant lacking a key thrombolysis regulating serpin, PAI-1. A 0.3 cm aortic segment isolated from the donor mouse was transplanted into the infra-renal aorta of recipient mice for aortic allograft studies (Table 1). The aortic transplant was anastomosed end-to-end using Sharpoint 11/0 nylon sutures (Surgical Specialties Corporation, Reiding, Mass., USA) under general anesthetic (6.5 mg/100 g body weight Somnotrol, MTC Pharmaceuticals, Cambridge, ON, Canada) given by intramuscular (i.m.) injection. WT C57BL/6 mice were purchased directly from Jackson Laboratories (Bar Harbor, Me., U.S.A.) and PAI-1−/− mice were bred in-house using mice supplied by Jackson Laboratories prior to surgery. Mice were followed for 4 weeks after transplant. […] Serpins or serpin-derived peptides were infused by intravenous (i.v.) tail vein injection immediately after transplant surgery, once aortic pulsation was again visible. At 4 weeks after aortic transplant, mice were euthanized with 0.05 ml euthanyl (Bimeda—MTC Animal Health Ltd., Cambridge, ON, Canada) by i.m. injection.
Donor aortic transplant implants and adjacent recipient aorta (0.5-0.6 cm long) were cut into two 0.25-0.3 cm pieces, fixed, paraffin embedded, and cut into 5 μm sections (two per aortic section, providing 4 sections for analysis of each transplanted mouse aorta) and stained with Haematoxylin and eosin for morphometric analysis. Areas of plaque, lumen and internal elastic lamina were measured by means of the Olympus application program using a Sony Power HAD3CCD color video camera attached to the microscope and calibrated to the microscope objective. The mean total cross sectional area of the intima, using sections with the largest detectable plaque area, was calculated for each aortic specimen. Numbers of invading mononuclear cells were counted per high powered field area at three sites in the intimal, medial and adventitial layers and the mean count for each arterial layer and specimen calculated.

For data set [2], the target named is T1, urokinase-type plasminogen activator (uPA) (Homo sapiens, UniProt P00749).
T1 construct: purchased Sigma U0633
Kind of data set: uPA chromogenic enzyme activity assay. The format is biochemical. The note with it: chromogenic protease activity assay. The method, then: Activity of purified NSP and Serp-1 was measured as inhibitory activity for uPA, using a chromogenic assay (Assaypro, St. Louis, Mo., USA) as previously described (for example, see, Dai E, et al. (2003) J Biol Chem 278: 18563-18572). Serp-1, NSP or individual peptides were mixed with enzyme solution at room temperature for one hour, per the manufacturers protocol (American Diagnostics). After incubation, 10 μl of chromogenic substrate was added. The 96-well plate was covered and placed in a wet box for overnight incubation at 37° C. After a 17 hr incubation, the plate was read at 405 nm by microplate reader (Bio-Tek Instruments). Reaction buffer (100 mM NaCl, 2 mM CaCl2, 100 mM Tris-HCl, pH 7.5, Triton X-100, 0.005%) was used for dilutions of proteases, Serp-1, NSP, or serpin peptides and chromogenic substrate. Residual protease activity was calculated with comparison to control samples without active serpin or peptides.
Serpin inhibition activity of peptides was also assessed using assays for uPA, tPA, plamin, PAI-1 and anti-thrombin III (ATIII). […] Peptide inhibition of ATIII (ThermoFisher Scientific, Grand Island, N.Y.) was measured as a reduction in its thrombin activity. uPA (Sigma, U0633) activity towards pefachrome uPA (Enzyme Research Laboratories, South Bend, Ind., P082-33) was used for assaying peptide inhibition. […]

Data set [3] relates to PMA activated THP-1 monocytes. Kind of data set: Membrane fluidity cell activation assay. The note with it: peptides 500, 1000, 1500 ng/ml, Serp-1, NSP 500 ng/mL. The class given is cell-based, human. The method, then: Cellular membrane fluidity is measured by pyrene dimer formation in the lipid bilayer and is used as a non-specific measure of cell activation (Zalai C V, et al. (2001) J Am Coll Cardiol 38: 1340-1347). Increases in THP-1 human monocyte membrane fluidity, after PMA activation, correlate with changes in cell activation, adhesion and motility. […] Serpin-derived peptide treatments paralleled in vivo activity with the one exception being the S-4 peptide. […] All serpin-derived peptides were tested at three doses 500, 1000 and 1500 ng/ml.
One million >95% viable THP-1, Jurkat T, or 5×10^5 HUVEC cells were labeled with BPP (0.8 μM) for studying core membrane fluidity, three hours prior to cell activation as previously described (Viswanathan K, et al. (2009) B. J Leukoc Biol 85: 418-426; Viswanathan K, et al. (2006) Thromb Haemost 95: 499-510; Zalai C V, et al. (2001) J Am Coll Cardiol 38: 1340-1347; Viswanathan K, et al. (2012) PLoS One 7: e44694; and Christov A, et al. (2001) Lasers Surg Med 28: 414-426). […] At the end of one hour, cells were washed to remove excess fluorescent probe and monomer, excimer fluorescence emission intensities were measured at 390 nm and 485 nm, respectively, during excitation at 320 nm using a fluorescent dual wavelength reader (Fluoroskan, Thermolab systems, Oy, USA). […]

The next data set deals with Jurkat T cells. Kind of data set: RT-PCR signaling pathway gene expression analysis, Jurkat T cells. The note with it: vs saline. The format is cell-based, human. An excerpt: (§1) Shared effects of Serp-1 and S-1, one of the active Serp-1 RCL peptide inhibitors for plaque growth, on transcription of representative genes in signaling pathways were studied in human Jurkat T cell (FIG. 5A and FIG. 5B) and THP-1 monocytes (FIGS. […]). […] Serp-1 and the Serp-1 peptides (serpin-derived peptides) S-1 and S-5 were compared to saline treated controls. Genes with two-fold change in expression with P-value less than 0.05 by Student's t-test were considered significant.
(§2) To further examine potential mechanisms of inhibitory activity for individual serpin peptides, THP-1 monocyte and Jurkat T cells in culture were treated with individual serpins or serpin-derived peptides with proven inhibitory activity for plaque growth in vivo (Viswanathan K, et al. (2009) B. J Leukoc Biol 85: 418-426; Viswanathan K, et al. (2006) Thromb Haemost 95: 499-510; Chen H, et al. (2013) Antimicrob Agents Chemother 57: 4114-4127; and Viswanathan K, et al. (2012) PLoS One 7: e44694). RT-PCR signaling pathway gene arrays (Sigma-Aldrich, St. Louis, Mo., USA) were analyzed in triplicate per cell type using predicted peptide or serpin treatment.

A further data set has as its system THP-1 monocytes. Briefly: RT-PCR signaling pathway gene expression analysis, THP-1 monocytes. The format is cell-based, human. The note with it: THP-1 cells, vs saline.
Description: as §1, §2

The conditions of data set [4]: in vivo; cited from earlier work.
The conditions of data set [5]: patients with acute unstable angina after stent implantation; cited from earlier work.
Another data set deals with lethal viral sepsis. The note with it: in vivo; cited from earlier work.

Entries after “also recorded” stand apart in the source; their conditions may differ. Where a SMILES comes first, the peptide text is derived from it. Where no end group is shown, it is not given here.

For the molecule GTTASSDTAITLIPR [S-7], the “Adverse Events (number)” value in data set [1] (15 μg/mouse) was determined as 0.

For `CC(C)C[C@H](NC(=O)[C@H](C)NC(=O)[C@H](CC(N)=O)NC(=O)[C@@H](N)CCCNC(=N)N)C(=O)O` [S-3, RNAL] (H-RNAL-OH; N-terminus and C-terminus assumed), in data set [1] (15 μg/mouse), the “Adverse Events (number)” value came out at 0.

Turning to IPRNAL [S-1, IPRNAL], the results for the “Adverse Events (number)” value in data set [1] (1.5 μg/mouse), in data set [1] (15 μg/mouse) and in data set [1] (150 μg/mouse) were 0, 1 and 0, respectively. Also, the “Adverse Events (kind)” value in data set [1] (15 μg/mouse) is listed as “thrombosis; also recorded: fighting injury”.

Turning to MAVLYPQVIVDHPFFFLIRNR [S-8], the “Adverse Events (number)” value in data set [1] (15 μg/mouse) was determined as 0.

For ISRMAV [S-2, ISRMAV], in data set [1] (15 μg/mouse), the “Adverse Events (kind)” value is recorded as “thrombosis” and the “Adverse Events (number)” value worked out at 1.

On to EVNEEGSEAAAVSGM [S-6], for which, in data set [1] (1.5 μg/mouse), the “Adverse Events (kind)” value is listed as “thrombosis” and the “Adverse Events (number)” value stood at 1. Moreover, the “mortality (early thrombosis at site of aortic allograft transplant)” value in data set [1] (15 μg dose) came out at 100%. In addition, in data set [1] (15 μg/mouse), the “Adverse Events (kind)” value is given as “thromboses” and the “Adverse Events (number)” value came out at 6.

In the case of TAIVANKPF [S-5], the “Adverse Events (number)” value in data set [1] (1.5 μg/mouse), in data set [1] (15 μg/mouse) and in data set [1] (150 μg/mouse) was 0 each time.

IAISRM [S-4, IAISRM]: in data set [1] (15 μg/mouse), the “Adverse Events (number)” value was found to be 0.

B1: Serp-1: secreted myxomavirus-derived protein (serpin) that binds and inhibits uPA, tPA, plasmin and factor X (protein)
chain: RDIGLWTFRYVYNESDNVVFSPYGLTSALSVLRIAAGGNTKREIDVPESVVEDSDAFLALRELFVDASVPLRPEFTAEFSSRFNTSVQRVTFNSENVKDVINSYVKDKTGGDVPRVLDASLDRDTKMLLLSSVRMKTSWRHVFDPSFTTDQPFYSGNVTYKVRMMNKIDTLKTETFTLRNVGYSVTELPYKRRQTAMLLVVPDDLGEIVRALDLSLVRFWIRNMRKDVCQVVMPKFSVESVLDLRDALQRLGVRDAFDPSRADFGQASPSNDLYVTKVLQTSKIEADERGTTASSDTAITLIPRNALTAIVANKPFMFLIYHKPTTTVLFMGTITKGEKVIYDTEGRDDVVSSV
Consider B1, for which the “inhibition of uPA activity” value in data set [2] is “inhibited; also recorded: dose dependent with greater inhibition at the higher concentration (500 ng)”. Besides, in data set [3], the “IEx/IMon ratio (membrane fluidity)” value is listed as “consistently reduced membrane fluidity significantly”. Also, in the data set with Jurkat T cells, the BCL-2 gene expression entry is given as “had no effect” and the TCF7 gene expression entry is listed as “inhibited”. In addition, in the data set on Jurkat T cells (data not shown), the “CCL 20 gene expression” value is reported as “had no effect”, the CCND-1 gene expression entry was “had no effect”, the MMP7 gene expression entry is given as “had no effect” and the “interleukin-8 (IL-8) gene expression” value is listed as “had no effect”. For the same molecule, in the data set on THP-1 monocytes, the BRCA1 gene expression entry is given as “induced”, the “Selectin P ligand (CD162) gene expression” value is listed as “induced”, the “cyclin-dependent kinase inhibitor 1B (CDKN1; p27) gene expression” value is “induced” and the “glycogen synthase (GYS) gene expression” value is given as “induced”. For the same molecule, the plasma half-life in data set [4] was 20 to 60 min. Also, in data set [5], the “early markers of myocardial damage” value is on record as “reduced early markers of myocardial damage”. Further, the “survival in mouse models of lethal viral sepsis” value in the data set with lethal viral sepsis is reported as “improved survival”.

B2: NSP: mammalian serpin, neuroserpin, that binds tPA and uPA (protein)
chain: TGATFPEEAIADLSVNMYNRLRATGEDENILFSPLSIALAMGMMELGAQGSTQKEIRHSMGYDSLKNGEEFSFLKEFSNMVTAKESQYVMKIANSLFVQNGFHVNEEFLQMMKKYFNAAVNHVDFSQNVAVANYINKWVENNTNNLVKDLVSPRDFDAATYLALINAVYFKGNWKSQFRPENTRTFSFTKDDESEVQIPMMYQQGEFYYGEFSDGSNEAGGIYQVLEIPYEGDEISMMLVLSRQEVPLATLEPLVKAQLVEEWANSVKKQKVEVYLPRFTVEQEIDLKDVLKALGITEIFIKDANLTGLSDNKEIFLSKAIHKSFLEVNEEGSEAAAVSGMIAISRMAVLYPQVIVDHPFFFLIRNRRTGTILFMGRVMHPETMNTSGHDFEEL
Take B2: in data set [2], the “inhibition of uPA activity” value is reported as “inhibited”. In addition, the “IEx/IMon ratio (membrane fluidity)” value in data set [3] is reported as “consistently reduced membrane fluidity significantly”. Also, in data set [1] (15 μg/mouse), the “Adverse Events (kind)” value is “thrombosis” and the “Adverse Events (number)” value was determined as 1.

The record behind these values is patent US10550172B2, “Serpin reactive center loop peptides and methods of use” (University of Florida Research Foundation, Incorporated, priority 2015, dated 2020).
